The experiment has as its target VEGFR-2. The experiment in a line: cell-based or functional assay.

Turning to “VEGF-DΔN (from UniProt O43915 93-354) (ligand)”, the activity towards the VEGFR-2 bioassay worked out at 10 fold.
